1 protein from article doi:10.1101/2020.10.26.352583 (bioRxiv, 2020) can be followed below.

The data set deals with the molecule itself. Put plainly: ITC.

B1: HDP1 DNA-binding domain (HDP1-DBD), aa2991-3078 (domain or fragment, P. falciparum, UniProt A0A2I0C2C6 2991-3078, looked up)
chain: SEVQVSNINTPSSYNISARRRRRIGNNGPPSAEELNRLLNIQHLTIPEIATIYGVHRTTIARWCNIRNITSNSMNNSPGKRRKNEDNK
B1: the binding result is listed as “binds”.
